Test results taken from paper PMC9482650, “Quantitative fragmentomics allow affinity mapping of interactomes” (Nature Communications, 2022).

Experiments:
Assay in all cases: holdup assay
Design in all cases: key: below the threshold = too weak to quantify, mostly under pKd 3.1 to 4
Details in all cases: plain residues with an end cap or a label only (N-terminal biotin on a linker: gsgsgs; C-terminal amide)
[1] = target: T1, APBA2_1, Q99767
T1 sequence (Q99767 563-664, limits assumed, looked up): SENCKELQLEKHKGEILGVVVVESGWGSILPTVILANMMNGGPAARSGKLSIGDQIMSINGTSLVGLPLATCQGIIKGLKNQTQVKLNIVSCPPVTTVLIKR

[2] = target: T2, APBA2_2, Q99767
T2 sequence (Q99767 654-744, limits assumed, looked up): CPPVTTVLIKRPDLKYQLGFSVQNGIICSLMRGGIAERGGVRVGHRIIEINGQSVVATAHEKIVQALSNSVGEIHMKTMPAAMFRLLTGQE

[3] = target: T3, ARHGEF11, O15085
T3 sequence (O15085 42-136, limits assumed, looked up): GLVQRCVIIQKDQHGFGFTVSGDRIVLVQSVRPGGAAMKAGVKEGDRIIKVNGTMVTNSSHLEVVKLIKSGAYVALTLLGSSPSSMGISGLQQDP

[4] = target: T4, DFNB31_2, Q9P202
T4 sequence (Q9P202 274-371, limits assumed, looked up): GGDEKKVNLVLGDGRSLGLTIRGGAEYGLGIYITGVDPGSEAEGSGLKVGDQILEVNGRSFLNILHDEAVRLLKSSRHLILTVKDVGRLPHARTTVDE

[5] = target: DLG1_1, Q12959
[6] = target: DLG5_1, Q8TDM6
Sequence of DLG5_1, Q8TDM6 (Q8TDM6 617-713): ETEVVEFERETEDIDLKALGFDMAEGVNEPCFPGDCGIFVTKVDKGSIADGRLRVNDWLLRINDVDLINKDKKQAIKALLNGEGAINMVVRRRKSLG

[7] = target: T5, DVL3, Q92997
T5 sequence (Q92997 244-331, limits assumed, looked up): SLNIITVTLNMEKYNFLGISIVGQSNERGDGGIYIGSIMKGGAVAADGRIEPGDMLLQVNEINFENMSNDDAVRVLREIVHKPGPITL

[8] = target: GRASP, Q7Z6J2
Sequence of GRASP, Q7Z6J2 (Q7Z6J2 96-193): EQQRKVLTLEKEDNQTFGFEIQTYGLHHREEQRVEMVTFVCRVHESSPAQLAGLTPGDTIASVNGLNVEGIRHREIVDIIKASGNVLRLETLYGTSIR

[9] = target: GRIP2_3, Q9C0E4
Sequence of GRIP2_3, Q9C0E4 (Q9C0E4 238-339): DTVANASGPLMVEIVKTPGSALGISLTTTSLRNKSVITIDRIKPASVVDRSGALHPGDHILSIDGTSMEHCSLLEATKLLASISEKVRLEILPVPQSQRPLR

[10] = target: GRIP2_6, Q9C0E4
Sequence of GRIP2_6, Q9C0E4 (Q9C0E4 648-740): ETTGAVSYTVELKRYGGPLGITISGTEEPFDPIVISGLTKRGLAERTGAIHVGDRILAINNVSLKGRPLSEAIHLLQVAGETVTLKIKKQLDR

[11] = target: HTRA1, Q92743
Sequence of HTRA1, Q92743 (Q92743 360-477): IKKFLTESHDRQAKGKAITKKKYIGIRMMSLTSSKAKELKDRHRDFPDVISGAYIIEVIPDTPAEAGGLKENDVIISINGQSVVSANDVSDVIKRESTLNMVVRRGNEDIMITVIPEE

[12] = target: IL16_3, Q14005
Sequence of IL16_3, Q14005 (Q14005 1107-1207): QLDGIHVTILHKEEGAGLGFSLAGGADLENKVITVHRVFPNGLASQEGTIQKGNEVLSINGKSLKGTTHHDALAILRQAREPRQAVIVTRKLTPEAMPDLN

[13] = target: IL16_4, Q14005
Sequence of IL16_4, Q14005 (Q14005 1229-1329): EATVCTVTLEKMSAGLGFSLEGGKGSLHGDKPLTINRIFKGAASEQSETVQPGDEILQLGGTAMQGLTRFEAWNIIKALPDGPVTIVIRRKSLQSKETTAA

[14] = target: LIMK2, P53671
Sequence of LIMK2, P53671 (P53671 143-248): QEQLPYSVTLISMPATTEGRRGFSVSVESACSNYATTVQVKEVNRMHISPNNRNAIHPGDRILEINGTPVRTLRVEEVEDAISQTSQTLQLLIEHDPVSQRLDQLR

[15] = target: T6, LNX2_3, Q8N448
T6 sequence (Q8N448 463-564, limits assumed, looked up): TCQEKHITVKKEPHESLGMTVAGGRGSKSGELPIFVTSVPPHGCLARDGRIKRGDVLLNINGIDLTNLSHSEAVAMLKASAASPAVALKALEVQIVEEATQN

[16] = target: T7, MPDZ_10, O75970
T7 sequence (O75970 1624-1722, limits assumed, looked up): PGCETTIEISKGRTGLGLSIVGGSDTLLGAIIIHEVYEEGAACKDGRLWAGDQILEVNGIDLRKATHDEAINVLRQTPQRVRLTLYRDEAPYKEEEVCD

[17] = target: T8, MPP6, Q9NZW5
T8 sequence (Q9NZW5 125-219, limits assumed, looked up): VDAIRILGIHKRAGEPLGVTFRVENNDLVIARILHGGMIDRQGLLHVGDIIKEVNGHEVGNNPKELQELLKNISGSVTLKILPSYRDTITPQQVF

[18] = target: NHERF4_1, Q86UT5-2
Sequence of NHERF4_1, Q86UT5-2 (Q86UT5 other isoform, or with tags, fused parts or gaps): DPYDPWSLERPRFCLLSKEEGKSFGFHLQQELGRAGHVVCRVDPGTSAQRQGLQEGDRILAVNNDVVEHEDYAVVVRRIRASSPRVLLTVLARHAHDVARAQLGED

[19] = target: T9, PDZD2_2, O15018
T9 sequence (O15018 329-429, limits assumed, looked up): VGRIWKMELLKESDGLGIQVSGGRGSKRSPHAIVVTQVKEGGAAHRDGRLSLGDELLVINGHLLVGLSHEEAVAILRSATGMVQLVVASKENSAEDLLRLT

[20] = target: T10, RAPGEF6, Q8TEU7
T10 sequence (Q8TEU7 525-625, limits assumed, looked up): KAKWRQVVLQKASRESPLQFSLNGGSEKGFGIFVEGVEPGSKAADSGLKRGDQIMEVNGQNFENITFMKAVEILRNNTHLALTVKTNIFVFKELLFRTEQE

[21] = target: SCRIB_2, Q14160
Sequence of SCRIB_2, Q14160 (Q14160 857-960): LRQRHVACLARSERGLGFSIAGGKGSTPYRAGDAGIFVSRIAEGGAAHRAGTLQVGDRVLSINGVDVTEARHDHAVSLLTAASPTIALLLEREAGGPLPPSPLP

[22] = target: SCRIB_3, Q14160
Sequence of SCRIB_3, Q14160 (Q14160 999-1103): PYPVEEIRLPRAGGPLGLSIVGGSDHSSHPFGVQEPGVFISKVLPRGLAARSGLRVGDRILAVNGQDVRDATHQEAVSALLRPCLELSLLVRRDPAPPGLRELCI

[23] = target: T11, SNTB1, Q13884
T11 sequence (Q13884 107-205, limits assumed, looked up): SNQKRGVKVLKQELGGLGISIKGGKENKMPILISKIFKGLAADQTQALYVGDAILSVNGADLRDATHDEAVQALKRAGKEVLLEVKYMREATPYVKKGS

[24] = target: SNX27, Q96L92
[25] = target: TJP1_2, Q07157
Sequence of TJP1_2, Q07157 (Q07157 181-274): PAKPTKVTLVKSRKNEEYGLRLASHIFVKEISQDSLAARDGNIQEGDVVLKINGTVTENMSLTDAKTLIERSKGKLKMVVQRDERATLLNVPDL

[26] = target: TJP2_1, Q9UDY2
Sequence of TJP2_1, Q9UDY2 (Q9UDY2 24-128): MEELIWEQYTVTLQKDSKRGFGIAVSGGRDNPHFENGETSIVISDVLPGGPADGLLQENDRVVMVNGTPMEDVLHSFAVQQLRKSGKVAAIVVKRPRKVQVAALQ

pKd [1]: below the threshold
pKd [2]: below the threshold
pKd [3]: below the threshold
pKd [4]: below the threshold
pKd [5]: below the threshold
pKd [6]: below the threshold
pKd [7]: below the threshold
pKd [8]: below the threshold
pKd [9]: below the threshold
pKd [10]: below the threshold
pKd [11]: below the threshold
pKd [12]: below the threshold
pKd [13]: below the threshold
pKd [14]: below the threshold
pKd [15]: below the threshold
pKd [16]: below the threshold
pKd [17]: 3.65
pKd [18]: below the threshold
pKd [19]: below the threshold
pKd [20]: below the threshold
pKd [21]: below the threshold
pKd [22]: below the threshold
pKd [23]: below the threshold
pKd [24]: below the threshold
pKd [25]: below the threshold
pKd [26]: below the threshold
Binder: VSVDDVRSTSQGLSSY [DFNB31_int, Q9P202]
